# B1: CAGCTG probe (dsDNA)
# DNA 1: TAGCCAATAACTTCGTCCCTCAGCTGCATATAAGGAAGATCTAACCACCAATTTGG
# DNA 2: CCAAATTGGTGGTTAGATCTTCCTTATATGCAGCTGAGGGACGAAGTTATTGGCTA
# Biological target: ASCL2 DBD wild type (human, UniProt Q99929 50-102)
# Test: EMSA; preferred over CACGTG probe; 32P EMSA: ~50 nM probe, 0.5/1/2 uM protein, 30 min, reagents as in Feng et al., gel at 4 C; fluorescent EMSA: 5x buffer (50 mM Tris pH 7.5, 250 mM NaCl, 5 mM MgCl2, 20% glycerol, 2.5 mM DTT, 2.5 mM EDTA, 250 ug/ml poly(dI-dC), 1 mg/ml BSA) used at 1x plus half volume protein dialysis buffer (20 mM HEPES pH 7.9, 200 mM NaCl, 10% glycerol, 2 mM MgCl2), gel 0.5x TBE at 4 C
# Conditions: protein: recombinant; tags: N-terminal 6xHis; mScarlet fusion; chain copies: 2; label: 32P (SRI primer strand); blunt
# ASCL2 DBD wild type, sequence (Q99929 50-102): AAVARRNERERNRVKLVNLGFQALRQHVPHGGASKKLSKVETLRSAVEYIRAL
binder,measurement,value
B1,binding result,binds

# Reference: publication PMC12392098, “Predicting the DNA binding specificity of transcription factor mutants using family-level biophysically interpretable machine learning”
